Measured values taken from article PMC2811157.

Target: GST-tagged Polo-box domain (PBD) of Plk1 (UniProt P53350)
Experiment: GST pull-down with anti-GFP immunoblot, band quantification
Conditions: mitotic lysates of U2OS cell lines; immobilized GST-Plk1-PBD; input levels set to 100%; parent: est. 56; read off a plot

Sequence of UniProt P53350 (P53350 326-603): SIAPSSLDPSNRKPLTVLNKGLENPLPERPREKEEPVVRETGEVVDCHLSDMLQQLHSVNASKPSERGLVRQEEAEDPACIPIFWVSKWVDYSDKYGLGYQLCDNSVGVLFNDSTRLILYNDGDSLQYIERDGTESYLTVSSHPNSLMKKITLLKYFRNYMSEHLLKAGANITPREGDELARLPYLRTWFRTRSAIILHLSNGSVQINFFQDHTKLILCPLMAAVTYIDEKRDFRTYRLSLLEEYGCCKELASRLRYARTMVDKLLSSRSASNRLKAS

| Substance | response |
| --- | --- |
| GFP-tagged murine 53BP1, wild type (from UniProt P70399) S1620A | 78 % of input |
| GFP-tagged murine 53BP1, wild type (from UniProt P70399) S376A | 10 % of input |
